Experimental data from PMC12294753, “Development of INER-PP-F11N as the Peptide-Radionuclide Conjugate Drug Against CCK2 Receptor-Overexpressing Tumors” (International Journal of Molecular Sciences, 2025).
Entries after “also recorded” stand apart in the source; their conditions may differ. Where two headings read alike, the source gives them in different places. Blank lines part the entries; values can stand above or below the compound they belong to. Where a SMILES comes first, the peptide text is derived from it. [ ]: non-standard residue; d: D form. The star is where a group is joined. DOTA = O=C(O)CN1CCN(CC(=O)O)CCN(CC(=O)*)CCN(CC(=O)O)CC1; Butanoyl(4-(4-MePh)) = Cc1ccc(CCCC(=O)*)cc1; Nle = CCCC[C@H](N)C(=O)O; Ahx = NCCCCCC(=O)O

Key:
[1] = Metabolic stability analysis (radio-HPLC) in PBS at 4 °C or FBS at 37 °C; type: in vitro ADME
Procedure: DOTA-PP-F11N, DOTA-INER-PP-F11N-1, and DOTA-INER-PP-F11N-2 were labeled with In-111 and Lu-177 for further experiments. The detection of free In-111 after ITLC extension was defined as 0% radiolabeling efficiency. […]
To measure the labeling efficiency, ITLC was performed on glass microfiber chromatography paper impregnated with a silica gel (Agilent Technologies, Santa Clara, CA, USA) as described previously. Briefly, the ITLC sheets were developed with 10% methanol as solvent (Rf free Lu-177 = 0, Rf Lu-177-labeled compounds = 1) and measured using a radioactive scanner (AR-2000 radio-TLC […] Imaging Scanner, Bioscan, France). The sample was mixed with acetonitrile at a 1:1 (v/v) ratio, followed by centrifugation at 16,000× g for 5 min. The resulting supernatant was subsequently analyzed using HPLC with UV (220[…]) and radio detector with a Zorbax SB-C18 column (Agilent Technologies, Santa Clara, CA, USA). The flow rate was 0.8 mL/min, with the gradient mobile phase going from 90% A […] buffer (0.1% TFA in water) and 10% B buffer (0.1% TFA in acetonitrile) to 90% B buffer […] within 20 min.

A431-CCK2R (−) cells = assay: In vitro binding and internalization assay, A431-CCK2R (−) cells; type: cell-based; settings: 37 °C
Procedure: (§1) In vitro binding and internalization activities were measured using a gamma counter (WIZARD 1480, Perkin-Elmer). Briefly, A431-CCK2R (+) and A431-CCK2R (−) cells were seeded on 24-well plates (1 × 10^5 cells/well, Corning, NY, USA) for 12 h. The plated cells were treated with 30 ± 10 GBq/µmol of [^177Lu]Lu-DOTA-PP-F11N, [^177Lu]Lu-DOTA-INER-PP-F11N-1, or [^177Lu]Lu-DOTA-INER-PP-F11N-2 (1 mL/well) and then incubated at 37 °C for either 1 or 4 h. After incubation, the medium was collected, and the cells were then washed with ice-cold buffer. The medium and washed PBS were collected in tube 0. The washed cells were treated with glycine–HCl buffer (0.1 M, pH 3.0) and incubated for 10 min. After incubation, cells were washed again with glycine–HCl buffer. Both glycine-HCl buffer solutions were collected in tube 1. The washed cells were treated with 1 N NaOH (1 mL/well) and incubated for 10 min for cell lysis. After incubation, the cells were washed once with 1 N NaOH. The cell lysate solution was collected in tube 2. All tubes were analyzed using a gamma counter to detect radioactivity. Data were obtained from at least three independent experiments. The respective formulae for in vitro surface binding activity and internalization were as follows:Surface binding = tube 1/(tube 0 + tube 1 + tube 2) × 100%.Internalization = tube 2/(tube 0 + tube 1 + tube 2) × 100%.

A431-CCK2R (+) cells = assay: In vitro binding and internalization assay, A431-CCK2R (+) cells; type: cell-based; set-up: surface binding activity / internalization activity: concentration or dose not given beside the values; settings: for internalization activity / surface binding activity: A431-CCK2R (+) cells, 37 °C
Procedure: as §1

[2] = tested on: A431-CCK2R (−)/A431-CCK2R (+) tumor-bearing mice; assay: NanoSPECT/CT imaging of tumor-bearing mice; type: in vivo; settings: for radiotracer accumulation in the tumor region on NanoSPECT/CT: tail-vein injection, Lu-177-labeled
Procedure: (§2) To generate A431-CCK2R (+) and A431-CCK2R (−) tumor-bearing mice models, mice (3 per group) were inoculated subcutaneously with 6 × 10^6 cells, which were injected into the inner right back leg for A431-CCK2R (+) tumors and the left back leg for A431-CCK2R (−) tumors, respectively. These xenografts were monitored until the tumor volume reached approximately 200–500 mm^3 [57]. The mice were then randomized to subgroups for further experiments. The formula for calculating tumor volume (V) is V = 4/3πr^3.
The NanoSPECT/CT® plus scanner system (Mediso Medical Imaging Systems; Budapest, Hungary) was utilized to detect in vivo tumors in the in vivo animal models. Both A431-CCK2R (+) and A431-CCK2R (−) cancer cells were inoculated subcutaneously into the inner right leg and left back leg of the mice. Radiopharmaceuticals—[^111In]In-DOTA-PP-F11N, [^111In]In-DOTA-INER-PP-F11N-1, and [^111In]In-DOTA-INER-PP-F11N-2 (1 mCi)—were injected once the mean tumor volume reached approximately 200–500 mm^3. Inhalant (1–2% isoflurane) was used to anesthetize the mice during imaging acquisition. X-ray CT images and SPECT images were taken 4, 24, and 48 h after tail-vein injection. NanoSPECT imaging was acquired using nine multi-pinhole gamma detectors with high-resolution collimators. The energy window was set at 171 and 245 KeV ± 10%, the image size was set at 256 × 256, and the field of view was set at 60 mm × 100 mm.
For Lu-177, only 208 keV photons were used for imaging, with an energy window set at 208 keV ± 10%. Although Lu-177 also emits lower abundance photons at 113 keV, the 208 keV photon provides better image quality due to reduced scatter and higher energy resolution. Therefore, the gamma camera energy windows were specifically tailored to the photon emission profiles of each radionuclide to ensure optimal detection efficiency and image accuracy.
(§3) We investigated therapeutic responses in mice receiving [^177Lu]Lu-DOTA-PP-F11N, [^177Lu]Lu-DOTA-INER-PP-F11N-1, or [^177Lu]Lu-DOTA-INER-PP-F11N-2. A431-CCK2R (+) and A431-CCK2R (−) cells were implanted subcutaneously into the right and left inner hind legs of NOD/SCID mice. Once the tumors reached a volume of 200–500 mm^3, the mice were intravenously injected with either 200 μCi of [^177Lu]Lu-DOTA-PP-F11N, [^177Lu]Lu-DOTA-INER-PP-F11N-1, [^177Lu]Lu-DOTA-INER-PP-F11N-2, or PBS (as a non-radioactive control). The NanoSPECT/CT® plus scanner system (Mediso Medical Imaging Systems; Budapest, Hungary) was utilized to detect and image tumors in the mouse models. Tumor volumes were measured twice a week for 4 weeks.

[3] = Biodistribution study in tumor-bearing mice; type: in vivo; settings: mouse, intravenous, total radioactivity, 72 h after tail-vein injection, tumor-bearing mice
Procedure: as §2
Mice were sacrificed via CO2 asphyxiation 72 h after intravenous injection of 50–100 μCi (50–100 μL) of radiolabeled DOTA-PP-F11N, DOTA-INER-PP-F11N-1, or DOTA-INER-PP-F11N-2 [58]. Tumors and organs of interest were collected for further pathological examinations. The PerkinElmer 2480 Automatic Gamma Counter (PerkinElmer, Waltham, MA, USA) was used to measure radioactivity; the data are presented as the percentage injected dose per gram of tissue (%ID/g).

A431-CCK2R (+) tumors = assay: Therapeutic responses to Lu-177-labeled CCK2R analogs in CCK2R-expressing cancer-bearing mice; type: in vivo; settings: 200 μCi intravenously
Procedure: as §2, §3

[4] = Histopathological examinations (H&E) of mice after radiolabeled drug administration; type: in vivo; settings: light microscopy
Source text: To investigate the pathological alterations in tumor-bearing mice receiving radiopharmaceuticals, […] tissues, including tumors, heart, liver, and kidneys, were collected. The specimens were first fixed using 10% buffered neutral formalin and then embedded in paraffin. Sections of 3–5 μm thickness were stained with H&E and examined using light microscopy (40 × and 20 ×).

[5] = tested on: pancreatic tumor PDX models; set-up: method as in PMID 34593598; settings: cited from earlier work
[6] = Lu-177-labeled, 37 °C FBS, 144 h
[7] = labeled with Lu-177, each time point (Figure 2C, 4 °C PBS)
[8] = 4 °C PBS, 144 h after Lu-177 labeling
[9] = kidneys, read-out: radiotracer accumulation in the kidneys
[10] = tumor (A431-CCK2R (+)), read-out: tumor uptake of radiopharmaceuticals

Compound: DOTA-Lys(-4-TBA)-6-AMBA-(Glu)6-Ala-Tyr-Gly-Trp-Nle-Asp-Phe-NH2 [DOTA-INER-PP-F11N-1]
metabolic stability [1, 6]: 99%
metabolic stability [1, 7]: more than 90%

Compound: CCCC[C@H](NC(=O)[C@H](Cc1c[nH]c2ccccc12)NC(=O)CNC(=O)[C@H](Cc1ccc(O)cc1)NC(=O)[C@H](C)NC(=O)[C@@H](CCC(=O)O)NC(=O)[C@@H](CCC(=O)O)NC(=O)[C@@H](CCC(=O)O)NC(=O)[C@@H](CCC(=O)O)NC(=O)[C@@H](CCC(=O)O)NC(=O)[C@@H](CCC(=O)O)NC(=O)CCCCCNC(=O)[C@H](CCCCNC(=O)CCCc1ccc(C)cc1)NC(=O)CN1CCN(CC(=O)O)CCN(CC(=O)O)CCN(CC(=O)O)CC1)C(=O)N[C@@H](CC(=O)O)C(=O)N[C@@H](Cc1ccccc1)C(N)=O [[^177Lu]Lu-DOTA-INER-PP-F11N-2, metal not drawn] ({DOTA}-K(Butanoyl(4-(4-MePh)))[Ahx][dE][dE][dE][dE][dE][dE]AYGW[Nle]DF-NH2)
metabolic stability [1, 8]: more than 95%
metabolic stability [1, 6]: > 99%
internalization activity (A431-CCK2R (−) cells; 1 h): 0.25 ± 0.04 %IA/106 cells
surface binding activity (A431-CCK2R (−) cells; 1 h): 0.59 ± 0.01 %IA/106 cells
internalization activity (A431-CCK2R (−) cells; 4 h): 0.15 ± 0.18 %IA/106 cells
internalization activity (A431-CCK2R (+) cells; 1 h): 41.58 ± 3.46%
surface binding activity (A431-CCK2R (+) cells; 1 h): 5.51 ± 0.45%
internalization activity (A431-CCK2R (+) cells; 4 h): 81.26 ± 7.27%
surface binding activity (A431-CCK2R (+) cells; 4 h): 8.11 ± 2.65%
enhancement of internalization activity compared with PP-F11N (A431-CCK2R (+) cells; A431 CCK2R (+) cells, compared with conventional [^177Lu]Lu-DOTA-PP-F11N): 13.7%
radioactivity within the kidneys on NanoSPECT/CT ([2]; compared with Lu-177-labeled PP-F11N over the same period): significantly lower
radiotracer accumulation in the tumor region on NanoSPECT/CT [2]: imaging of the tumor was limited
tissue uptake at 72 h [3, 9]: 7.4 ± 1.5 %ID/g
tissue uptake at 72 h [3, 10]: 0.88 ± 0.25 %ID/g
tumor volume at D23 (A431-CCK2R (+) tumors): 1162.60 ± 275.92 mm^3
histopathological changes in the kidneys [4]: no significant histopathological changes
histopathological changes in the liver and heart [4]: no significant histopathological changes

Compound: DOTA-(Glu)6-Ala-Tyr-Gly-Trp-Nle-Asp-Phe-NH2 [DOTA-PP-F11N, reference compound]
metabolic stability ([1]; In-111-labeled, 37 °C FBS (Figure 2B)): less metabolic stability
metabolic stability ([1]; Lu-177-labeled, 37 °C FBS, 4 h): 94.6 ± 0.1%
metabolic stability [1, 6]: 56.4 ± 0.1%
metabolic stability [1, 7]: more than 90%

clearance of radiotracer accumulation in the urinary bladder, time after injection ([2]; NanoSPECT/CT): ≤ 24 h
Compound: O=C([O-])CN1CCN(CC(=O)[O-])CCN(CC(=O)[O-])CCN(CC(=O)[O-])CC1.[177Lu+3] [[^177Lu]Lu-DOTA, reference compound]
tumor volume at D23 (A431-CCK2R (+) tumors): 3237.10 ± 846.25 mm^3

Compound: Cc1cc(-c2ccc(NC(=O)CCCC(=O)N[C@@H](CCCCNC(=O)CN3CCN(CC(=O)O)CCN(CC(=O)O)CCN(CC(=O)O)CC3)C(=O)N3CCN(CCCOc4ccc5nccc(C(=O)NCC(=O)N6CC(F)(F)C[C@H]6C#N)c5c4)CC3)c(C)c2)ccc1N=Nc1ccc2c(S(=O)(=O)O)cc(S(=O)(=O)O)c(N)c2c1O [TEFAPI-07]
tumor uptake and retention [5]: significantly enhanced tumor uptake and retention

Compound: DOTA-Lys(-4-TBA)-AHA-(Glu)6-Ala-Tyr-Gly-Trp-Nle-Asp-Phe-NH2 [DOTA-INER-PP-F11N-2]
metabolic stability [1, 7]: more than 90%

Compound: CCCC[C@H](NC(=O)[C@H](Cc1c[nH]c2ccccc12)NC(=O)CNC(=O)[C@H](Cc1ccc(O)cc1)NC(=O)[C@H](C)NC(=O)[C@@H](CCC(=O)O)NC(=O)[C@@H](CCC(=O)O)NC(=O)[C@@H](CCC(=O)O)NC(=O)[C@@H](CCC(=O)O)NC(=O)[C@@H](CCC(=O)O)NC(=O)[C@@H](CCC(=O)O)NC(=O)CN1CCN(CC(=O)O)CCN(CC(=O)O)CCN(CC(=O)O)CC1)C(=O)N[C@@H](CC(=O)O)C(=O)N[C@@H](Cc1ccccc1)C(N)=O [[^177Lu]Lu-DOTA-PP-F11N, metal not drawn, reference compound]
metabolic stability [1, 8]: more than 95%
metabolic stability [1, 6]: below 60%
internalization activity (A431-CCK2R (−) cells; 1 h): 1.26 ± 0.06 %IA/106 cells
surface binding activity (A431-CCK2R (−) cells; 1 h): 3.42 ± 0.21 %IA/106 cells
internalization activity (A431-CCK2R (−) cells; 4 h): 1.29 ± 0.01 %IA/106 cells
surface binding activity (A431-CCK2R (−) cells; 4 h): 3.24 ± 0.15 %IA/106 cells
internalization activity (A431-CCK2R (+) cells; 1 h): 37.37 ± 3.04%
surface binding activity (A431-CCK2R (+) cells; 1 h): 6.60 ± 0.17%
internalization activity (A431-CCK2R (+) cells; 4 h): 71.44 ± 3.52%
surface binding activity (A431-CCK2R (+) cells; 4 h): 11.51 ± 3.16%
washout of radiotracer accumulation in both kidneys, time after injection ([2]; NanoSPECT/CT, accumulation from one hour): more than 48 h
radiotracer accumulation in the tumor region on NanoSPECT/CT [2]: relatively low
tissue uptake at 72 h [3, 9]: 14.2 ± 5.9 %ID/g
tissue uptake at 72 h [3, 10]: 0.33 ± 0.02 %ID/g
tumor volume at D23 (A431-CCK2R (+) tumors): 1884.72 ± 333.13 mm^3
histopathological changes in the kidneys [4]: renal tubular necrosis (arrow 1), moderate renal tubular casts (arrow 2), slight renal tubular degeneration (arrow 3), and neutrophil infiltration (arrow 4); also recorded: moderate/severe renal tubular necrosis (arrow 1), moderate renal tubular casts (arrow 2), slight renal tubular degeneration (arrow 3), and slight infiltration of neutrophils (arrow 4)
histopathological changes in the liver and heart [4]: no significant histopathological changes
histopathological changes in the kidneys ([4]; listed as PP-F11N): renal tubular necrosis and inflammation
